“And” between values parts separate entries of the source, which are not always exact repeats. Identical values can stand only once. Like-named read-outs stand apart in the source and are kept apart here.

Broadly, the EC50 is the midpoint of the concentration-response curve. Higher therefore signals a less potent agent.

Assay [1] concerns the target T1, human MDR1 (multidrug resistance protein 1) (human, UniProt P08183 1-1280). Put plainly: cell-based or functional assay.
The target of assay [2] is T2, cynomolgus MDR1 (Macaca fascicularis) (Macaca fascicularis (cynomolgus), UniProt P08183 1-1280 (human entry)).
T2 construct: also called cB1; cynomolgus ABCB1
Put plainly: flow cytometry, 293T cells transfected with cynomolgus MDR1.

Assay [3] has as its target T1, human MDR1 (multidrug resistance …). Put plainly: cell-based or functional assay. The source holds these as a separate data set.
For assay [4] the target is unchanged. Kind of assay: binding to C6 cells overexpressing human ABCB1 (FIGS. 17A-17B).
For assay [5] the target is unchanged. Kind of assay: flow cytometry, 293T cells stably expressing human ABCB1 (293T_ABCB1_OX). On the technique in general: A flow cytometer gives signals particle by particle.
The target of assay [6] is T3, human CD47 (human, UniProt Q08722 19-323).
T3 construct: whole, on cells; Overexpressed on rat C6 cells, or endogenous on human tumour cell lines; also called KT14; hKT14
Put plainly: binding to C6 cells overexpressing human CD47 (FIGS. 17A-17B).

The target in assay [7] is T3, human CD47. Put plainly: binding to C6 cells expressing human CD47, figure legend.

B1: B1.28 (antibody, human IgG1, V domains shown)
VH: EVKLVESGGGLVKPGGSLKLSCAASGFTFGLYTMSWVRQTPERRLEWVATISSGGSNTYYPDSVKGRFTISRDNAKNNLFLQMNSLRSEDTALYYCARYYRYDAWFAYWGQGTLVTVSS
VL: DVLLTQTPLSLPVSLGDQASISCRSSQNIVHSTGNTYLDWYLQKPGQSPKLLIYKVSNRFSGVPDRFSGSGSGTDFTLKISRVEAEDLGVYFCFQGSHIPRTFGGGTKLEIK
notes: expressed with human IgG1 heavy and human kappa light constant regions; also called KNJY B1-28; KB1.28
Consider B1, for which the “IC50 of vincristine on N6/ADR cells with antibody” value (shortened to “IC50 of vincristine”) in assay [1] was 3.34 nM and 2.87 nM. Also, the binding result in assay [2] was “binds”.

B2: MRK16 (antibody, V domains shown)
VH: EVILVESGGGLVKPGGSLKLSCAASGFTFSSYTMSWVRQTPEKRLEWVATISSGGGNTYYPDSVKGRFTISRDNAKNNLYLQMSSLRSEDTALYYCARYYRYEAWFASWGQGTLVTVSA
VL: DVLMTQTPVSLSVSLGDQASISCRSSQSIVHSTGNTYLEWYLQKPGQSPKLLIYKISNRFSGVPDRFSGSGSGTDFTLKISRVEAEDLGVYYCFQASHFPRTFGGGTKLEIK
Regarding B2, the “IC50 of vincristine” value in assay [3] was 0.734 nM.

B3: 15D3DD KT14KK B1.28.huL2 LC (bispecific antibody, human IgG1)
heavy 1: not shown
heavy 2: not shown
VL: DVVLTQSPLSLPVTPGEPASISCRSSQNIVHSTGNTYLDWYLQKPGQSPQLLIYKVSNRFSGVPDRFSGSGSGTDFTLKISRVEAEDVGVYYCFQGSHIPRTFGQGTKLEIK
For the molecule B3, the binding result in assay [4] is recorded as “binds”.

B4: B1.39 (antibody, human IgG1, V domains shown)
VH: EVMLVESGGGLVKPGGSLKLSCAASGFTFSSYTMSWVRQTPEKRLEWVATVSSGGGNTYYPDSVKGRFTISRDNAKNNLYLQMSSLRSEDTALYYCARYGNYGWFTYWGQGTLVTVSA
VL: DVLMTQTPLSLPVSLGDQASISCRSSQSILHSNGNTYLEWYLQKPGQSPKLLIYKVSNRFSGVPDRFSASGSGTDFTLKISRVEAEDLGIYYCFQGSHVPRTFGGGTKLEIK
For B4, in assay [1], the “IC50 of vincristine” value stood at 0.0909 nM.

B5: B1.99 (antibody, human IgG1, V domains shown)
VH: EVQLVESGGALVKPGGSLKLSCAASGFTFSNYAMSWVRQTPERRLEWVATISSGGSYTYYPDSVKGRFTISRDNAKNTLYLQMSSLISEDTALYYCTRGYGNFAWFAYWGHGTLVTVSA
VL: DVVMTQTPLSLPVSLGDQVSISCRSSQSIVHSYGSTYLEWYLQKPGQSPKLLIYKVSNRFSGVPDRFSGSGSGTDFTLKISRVEAEDLGVYFCFQGSHIPYTFGGGTKLELK
For the molecule B5, in assay [1], the “IC50 of vincristine” value is 0.0619 nM.

B6: 15D3 (antibody, V domains shown)
VH: EVKVVESGGVLVRPGGSLKLSCAASGFTFSRYTMSWVRQTPEKRLEWVATISSGGGNTYYPDSVKGRFTVSRDNAMSSLYLQMSSLRSEDTALYYCARYGAGDAWFAYWGQGTLVTVSS
VL: DVLMTQTPLSLPVSLGDQASISCRSSQSIVHSTGNTYLEWYLQKPGQSPKLLIYKVSNRFSGVPDRFSGSGSGTDFTLKISRLEAEDLGVYYCFQGSHFPRTFGGGTRLEIK
notes: Known anti-MDR1 antibody; also called KPA01; 15D3 hybridoma
On to B6, for which the “IC50 of vincristine” value in assay [3] amounted to 0.466 nM. The EC50 in assay [5] is 14.6 nM.

B7: B1.30 (antibody, human IgG1, V domains shown)
VH: EVMLVESGGGLVKPGGSLKLSCAASGFTFSSYTMSWVRQTPEKRLEWVATISSGGGNTYYPDSVKGRFTISRDNAKNNLYLQMSSLRSEDTALYYCARYYRYDAWFAYWGQGTLVTVSA
VL: DVLMTQTPLSLPVSLGDQASISCRSSQSIVHSTGNTYLEWYLQKPGQSPKLLIYKVSNRFSGVPDRFSGSGSGTDFTLKISRVETEDLGVYYCFQGSHVPRTFGGGTKLEIK
In the case of B7, the “IC50 of vincristine” value in assay [1] is 0.0522 nM.

B8: B1.85 (antibody, human IgG1, V domains shown)
VH: EVQLVESGGALVKPGGSLKLSCAASGFTFSNYGVSWVRQTPEKRLEWVATISSSGSYTYYPDIVRGRFTISRDNAKNTLYLQMSSLRSEDTAFYYCARGYGNFAWFAYWGQGTLVTVSA
VL: DIQMTQSPLSLPVSLGDQASISCRSSQSIVHSTGNTYLEWYLQKPGQSPKLLIYKVSNRFSGVPDRFSGSGSGTDFTLKINRVEAEDLGVYYCFQGSHVPYTFGGGTKLEIK
With B8, the “IC50 of vincristine” value in assay [1] turned out to be 0.0345 nM.

B9: BisAb-1 (15D3 HC-Hz1 DD hIgG1 / KT14 IgG1 KK / B1-28 VL humaniz) (bispecific antibody)
VH: EVQLVESGGVVVQPGGSLRLSCAASGFTFSRYTMSWVRQAPGKGLEWVATISSGGGQTYYPDSVKGRFTVSRDNSKNSLYLQMNSLRTEDTALYYCARYGAGDAWFAYWGQGTLVTVSS
heavy: not shown
VL: DVVLTQSPLSLPVTLGQPASISCRSSQNIVHSTGNTYLDWYQQRPGQSPRLLIYKVSNRFSGVPDRFSGSGSGTDFTLKISRVEAEDVGVYFCFQGSHIPRTFGQGTKLEIK
notes: The 15D3 Hz1 VH is fused to human IgG1 Fc with K392D and K409D (EU)
Turning to B9, in assay [3], the “IC50 of vincristine” value was 0.0064 nM. In assay [5], this molecule yielded an EC50 of 118 nM.

B10: 15D3DD KT14KK MRK16v5 LC (bispecific antibody, human IgG1)
heavy 1: not shown
heavy 2: not shown
VL: DIVMTQTPLSSPVTLGQPASISCRSSQSIVYSNGNTYLEWYQQKPGQPPRLLIYKISNRFSGVPDRFSGSGAGTDFTLKISRVEAEDVGVYYCFQASHFPRTFGGGTKLEIK
As to B10, the binding result in assay [6] and in assay [4] was “binds” in each case.

B11: KT14.5F9hu scFv-B1.261.hu1 (bispecific antibody, human IgG1, kappa)
scFv: not shown
heavy: EVQLQESGPGLVKPSETLSLTCTVSGFSLTSYGVHWVRQPPGKGLEWLVVIWSDGSTTYNSALKSRLTISKDNSKNQVSLKLSSVTAADTAVYYCARHGRWLLQRGGAMDYWGQGTMVTVSSASTKGPSVFPLAPSSKSTSGGTAALGCLVKDYFPEPVTVSWNSGALTSGVHTFPAVLQSSGLYSLSSVVTVPSSSLGTQTYICNVNHKPSNTKVDKRVEPKSCDKTHTCPPCPAPELLGGPSVFLFPPKPKDTLMISRTPEVTCVVVDVSHEDPEVKFNWYVDGVEVHNAKTKPREEQYNSTYRVVSVLTVLHQDWLNGKEYKCKVSNKALPAPIEKTISKAKGQPREPQVCTLPPSREEMTKNQVSLSCAVKGFYPSDIAVEWESNGQPENNYKTTPPVLDSDGSFFLVSKLTVDKSRWQQGNVFSCSVMHEALHNHYTQKSLSLSPGK
light: DVQMTQSPSSLSASVGDRVTITCRASQNVGSYIAWYQQKPGKSPKALIYSASYRSSGVPSRFSGSGAGTDFTLTISSLQPEDFATYFCQQYNSYPLTFGGGTKLEIKRTVAAPSVFIFPPSDEQLKSGTASVVCLLNNFYPREAKVQWKVDNALQSGNSQESVTEQDSKDSTYSLSSTLTLSKADYEKHKVYACEVTHQGLSSPVTKSFNRGEC
For the molecule B11, in assay [7], the binding result is reported as “binds”.

B12: KT14.B6H12hu scFv-B1.261.hu1 (bispecific antibody, human IgG1, kappa)
scFv: not shown
heavy: EVQLQESGPGLVKPSETLSLTCTVSGFSLTSYGVHWVRQPPGKGLEWLVVIWSDGSTTYNSALKSRLTISKDNSKNQVSLKLSSVTAADTAVYYCARHGRWLLQRGGAMDYWGQGTMVTVSSASTKGPSVFPLAPSSKSTSGGTAALGCLVKDYFPEPVTVSWNSGALTSGVHTFPAVLQSSGLYSLSSVVTVPSSSLGTQTYICNVNHKPSNTKVDKRVEPKSCDKTHTCPPCPAPELLGGPSVFLFPPKPKDTLMISRTPEVTCVVVDVSHEDPEVKFNWYVDGVEVHNAKTKPREEQYNSTYRVVSVLTVLHQDWLNGKEYKCKVSNKALPAPIEKTISKAKGQPREPQVCTLPPSREEMTKNQVSLSCAVKGFYPSDIAVEWESNGQPENNYKTTPPVLDSDGSFFLVSKLTVDKSRWQQGNVFSCSVMHEALHNHYTQKSLSLSPGK
light: DVQMTQSPSSLSASVGDRVTITCRASQNVGSYIAWYQQKPGKSPKALIYSASYRSSGVPSRFSGSGAGTDFTLTISSLQPEDFATYFCQQYNSYPLTFGGGTKLEIKRTVAAPSVFIFPPSDEQLKSGTASVVCLLNNFYPREAKVQWKVDNALQSGNSQESVTEQDSKDSTYSLSSTLTLSKADYEKHKVYACEVTHQGLSSPVTKSFNRGEC
For B12, the binding result in assay [7] is listed as “binds”.

B13: KT14.5F9hu scFv-B1.28.hu13 (bispecific antibody, human IgG1, kappa)
scFv: not shown
heavy: EVQLVESGGGLVKPGGSLRLSCAASGFTFGLYTMSWVRQAPGKGLEWVATISSGGSNTYYPDSVKGRFTISRDNAKNSLYLQMNSLRAEDTAVYYCARYYRYDAWFAYWGQGTLVTVSSASTKGPSVFPLAPSSKSTSGGTAALGCLVKDYFPEPVTVSWNSGALTSGVHTFPAVLQSSGLYSLSSVVTVPSSSLGTQTYICNVNHKPSNTKVDKRVEPKSCDKTHTCPPCPAPELLGGPSVFLFPPKPKDTLMISRTPEVTCVVVDVSHEDPEVKFNWYVDGVEVHNAKTKPREEQYNSTYRVVSVLTVLHQDWLNGKEYKCKVSNKALPAPIEKTISKAKGQPREPQVCTLPPSREEMTKNQVSLSCAVKGFYPSDIAVEWESNGQPENNYKTTPPVLDSDGSFFLVSKLTVDKSRWQQGNVFSCSVMHEALHNHYTQKSLSLSPGK
light: EVVLTQSPATLSLSPGERATLSCRSSQNIVHSTGNTYLDWYQQKPGQSPRLLIYKVSNRFSGVPARFSGSGSGTDFTLTISSLEPEDFAVYYCFQGSHIPRTFGGGTKLEIKRTVAAPSVFIFPPSDEQLKSGTASVVCLLNNFYPREAKVQWKVDNALQSGNSQESVTEQDSKDSTYSLSSTLTLSKADYEKHKVYACEVTHQGLSSPVTKSFNRGEC
Consider B13, for which the binding result in assay [7] is “binds”.

B14: KT14.B6H12hu scFv-B1.28.hu13 (bispecific antibody, human IgG1, kappa)
scFv: not shown
heavy: EVQLVESGGGLVKPGGSLRLSCAASGFTFGLYTMSWVRQAPGKGLEWVATISSGGSNTYYPDSVKGRFTISRDNAKNSLYLQMNSLRAEDTAVYYCARYYRYDAWFAYWGQGTLVTVSSASTKGPSVFPLAPSSKSTSGGTAALGCLVKDYFPEPVTVSWNSGALTSGVHTFPAVLQSSGLYSLSSVVTVPSSSLGTQTYICNVNHKPSNTKVDKRVEPKSCDKTHTCPPCPAPELLGGPSVFLFPPKPKDTLMISRTPEVTCVVVDVSHEDPEVKFNWYVDGVEVHNAKTKPREEQYNSTYRVVSVLTVLHQDWLNGKEYKCKVSNKALPAPIEKTISKAKGQPREPQVCTLPPSREEMTKNQVSLSCAVKGFYPSDIAVEWESNGQPENNYKTTPPVLDSDGSFFLVSKLTVDKSRWQQGNVFSCSVMHEALHNHYTQKSLSLSPGK
light: EVVLTQSPATLSLSPGERATLSCRSSQNIVHSTGNTYLDWYQQKPGQSPRLLIYKVSNRFSGVPARFSGSGSGTDFTLTISSLEPEDFAVYYCFQGSHIPRTFGGGTKLEIKRTVAAPSVFIFPPSDEQLKSGTASVVCLLNNFYPREAKVQWKVDNALQSGNSQESVTEQDSKDSTYSLSSTLTLSKADYEKHKVYACEVTHQGLSSPVTKSFNRGEC
For B14, in assay [7], the binding result was “binds”.

The record behind these values is patent US20230203156A1 (WILLIAM ROBERT ARATHOON LIVING TRUST DATED AUGUST 29 2016, published 2023).
